Experimental findings from PMC6144819 (Nucleic Acids Research, 2018) are described below.

For this assay, the target named is T1, Drosophila SUMO-TRAX (WT) (Drosophila, UniProt Q9VF77 1-298).
T1 sequence (looked up): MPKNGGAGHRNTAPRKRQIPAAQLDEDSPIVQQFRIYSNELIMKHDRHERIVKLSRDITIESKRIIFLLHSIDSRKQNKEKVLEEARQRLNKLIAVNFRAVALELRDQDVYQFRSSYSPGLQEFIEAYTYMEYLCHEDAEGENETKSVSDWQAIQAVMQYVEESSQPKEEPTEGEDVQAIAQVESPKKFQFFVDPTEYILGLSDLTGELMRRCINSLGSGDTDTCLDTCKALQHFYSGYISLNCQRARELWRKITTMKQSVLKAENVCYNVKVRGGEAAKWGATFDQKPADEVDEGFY
Nature of the assay: cryo-EM structure.

B1: Drosophila Translin (natural protein, UniProt Q7JVK6 1-235, looked up)
chain: MSNFVNLDIFSNYQKYIDNEQEVRENIRIVVREIEHLSKEAQIKLQIIHSDLSQISAACGLARKQVELCAQKYQKLAELVPAGQYYRYSDHWTFITQRLIFIIALVIYLEAGFLVTRETVAEMLGLKISQSEGFHLDVEDYLLGILQLASELSRFATNSVTMGDYERPLNISHFIGDLNTGFRLLNLKNDGLRKRFDALKYDVKKIEEVVYDVSIRGLSSKEKDQQEEPAVPATE
As for B1, the “stoichiometry N” value was 1 TRAX per Translin (4:4).

By stoichiometry N is commonly meant a count of units in the complex or per binding partner.
